T1: Flt3(D835Y)(h) (human, UniProt P36888 564-993, limits assumed)
T1 sequence (looked up): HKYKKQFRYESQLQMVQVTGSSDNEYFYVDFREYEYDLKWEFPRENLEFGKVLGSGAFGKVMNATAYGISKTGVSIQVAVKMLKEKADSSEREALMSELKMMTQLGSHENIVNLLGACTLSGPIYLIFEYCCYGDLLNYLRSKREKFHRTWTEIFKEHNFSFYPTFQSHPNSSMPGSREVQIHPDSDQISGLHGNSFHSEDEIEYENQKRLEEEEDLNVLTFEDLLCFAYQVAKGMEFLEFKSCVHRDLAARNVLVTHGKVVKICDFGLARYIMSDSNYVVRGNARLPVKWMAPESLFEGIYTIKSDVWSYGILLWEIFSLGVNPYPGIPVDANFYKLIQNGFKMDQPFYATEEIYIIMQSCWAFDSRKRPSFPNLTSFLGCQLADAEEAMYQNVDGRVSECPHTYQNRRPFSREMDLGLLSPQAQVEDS

T2: IKKβ(h) (human, UniProt O14920 1-756)
T2 sequence (looked up): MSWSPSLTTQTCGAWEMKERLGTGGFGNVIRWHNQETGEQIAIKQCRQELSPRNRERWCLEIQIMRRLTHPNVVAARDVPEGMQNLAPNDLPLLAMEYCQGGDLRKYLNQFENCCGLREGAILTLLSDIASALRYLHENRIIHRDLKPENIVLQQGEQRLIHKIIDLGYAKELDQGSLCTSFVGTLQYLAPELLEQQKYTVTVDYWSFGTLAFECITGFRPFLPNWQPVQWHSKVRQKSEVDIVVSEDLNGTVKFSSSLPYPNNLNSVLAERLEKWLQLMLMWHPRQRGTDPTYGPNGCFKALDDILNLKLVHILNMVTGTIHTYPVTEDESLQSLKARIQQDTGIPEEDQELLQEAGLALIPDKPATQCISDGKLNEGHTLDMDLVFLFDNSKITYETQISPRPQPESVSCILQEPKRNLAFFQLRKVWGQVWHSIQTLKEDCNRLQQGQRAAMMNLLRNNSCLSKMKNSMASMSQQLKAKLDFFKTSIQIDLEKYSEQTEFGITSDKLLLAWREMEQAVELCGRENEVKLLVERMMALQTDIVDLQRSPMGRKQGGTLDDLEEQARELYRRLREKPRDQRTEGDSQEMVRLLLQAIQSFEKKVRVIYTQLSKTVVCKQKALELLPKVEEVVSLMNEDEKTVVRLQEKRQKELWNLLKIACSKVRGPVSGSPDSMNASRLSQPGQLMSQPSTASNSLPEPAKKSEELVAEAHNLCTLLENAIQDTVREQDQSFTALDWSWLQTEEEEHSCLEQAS

T3: TAK1(h) (human, UniProt O43318 1-303, limits assumed)
T3 sequence (looked up): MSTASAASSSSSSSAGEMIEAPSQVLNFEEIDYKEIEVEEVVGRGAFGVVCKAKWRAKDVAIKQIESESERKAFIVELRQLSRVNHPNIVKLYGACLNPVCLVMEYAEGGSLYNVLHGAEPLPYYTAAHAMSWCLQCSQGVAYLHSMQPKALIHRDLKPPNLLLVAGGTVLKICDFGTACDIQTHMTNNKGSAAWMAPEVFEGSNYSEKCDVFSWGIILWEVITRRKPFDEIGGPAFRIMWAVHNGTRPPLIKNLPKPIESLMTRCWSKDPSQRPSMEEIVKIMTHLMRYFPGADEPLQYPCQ

T4: BrSK2(h) (human, UniProt Q8IWQ3 1-736, limits assumed)
T4 sequence (looked up): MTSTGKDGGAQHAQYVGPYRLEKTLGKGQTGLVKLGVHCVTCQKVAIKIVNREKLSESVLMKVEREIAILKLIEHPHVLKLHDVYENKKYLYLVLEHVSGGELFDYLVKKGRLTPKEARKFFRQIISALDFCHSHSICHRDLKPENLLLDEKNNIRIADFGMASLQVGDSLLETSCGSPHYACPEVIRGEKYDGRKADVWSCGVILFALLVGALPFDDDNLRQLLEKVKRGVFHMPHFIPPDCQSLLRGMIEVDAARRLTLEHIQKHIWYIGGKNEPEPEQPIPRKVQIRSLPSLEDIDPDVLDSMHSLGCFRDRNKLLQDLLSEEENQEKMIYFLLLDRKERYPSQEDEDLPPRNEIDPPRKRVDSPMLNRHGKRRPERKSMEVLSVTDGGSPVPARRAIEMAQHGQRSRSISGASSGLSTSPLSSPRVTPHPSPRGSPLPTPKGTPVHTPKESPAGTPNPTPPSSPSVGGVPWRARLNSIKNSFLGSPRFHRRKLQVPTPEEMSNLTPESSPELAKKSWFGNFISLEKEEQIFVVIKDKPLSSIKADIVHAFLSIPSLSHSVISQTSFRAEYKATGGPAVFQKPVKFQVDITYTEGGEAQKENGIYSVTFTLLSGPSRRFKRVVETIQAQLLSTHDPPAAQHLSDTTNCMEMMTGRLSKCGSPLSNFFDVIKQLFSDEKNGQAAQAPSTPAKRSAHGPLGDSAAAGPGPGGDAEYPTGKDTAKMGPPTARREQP

B1: MMI-0300 (peptide)
peptide: FAKLAARLYRKALARQLGVAA
B2: MMI-0400 (peptide)
peptide: KAFAKLAARLYRKALARQLGVAA

Legend:
Test in all cases: cell-based or functional assay
Flt3(D835Y)(h) = molecular target: T1, Flt3(D835Y)(h)
IKKβ(h) = molecular target: T2, IKKβ(h)
LOK(h) = LOK(h) (human, UniProt O94804 1-348, limits assumed)
Chain of LOK(h) (O94804 1-348 limits assumed): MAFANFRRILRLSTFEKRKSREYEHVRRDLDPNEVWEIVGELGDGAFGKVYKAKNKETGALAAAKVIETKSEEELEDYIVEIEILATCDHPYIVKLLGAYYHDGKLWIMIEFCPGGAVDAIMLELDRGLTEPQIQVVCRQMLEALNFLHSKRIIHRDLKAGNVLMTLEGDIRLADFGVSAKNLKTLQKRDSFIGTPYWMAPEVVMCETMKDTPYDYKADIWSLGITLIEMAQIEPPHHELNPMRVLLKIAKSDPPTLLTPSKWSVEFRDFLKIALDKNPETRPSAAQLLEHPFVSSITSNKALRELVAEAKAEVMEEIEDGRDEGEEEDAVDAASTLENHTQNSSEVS

Rsk4(h) = Rsk4(h) (human, UniProt Q9UK32 1-745, limits assumed)
Chain of Rsk4(h) (Q9UK32 whole entry): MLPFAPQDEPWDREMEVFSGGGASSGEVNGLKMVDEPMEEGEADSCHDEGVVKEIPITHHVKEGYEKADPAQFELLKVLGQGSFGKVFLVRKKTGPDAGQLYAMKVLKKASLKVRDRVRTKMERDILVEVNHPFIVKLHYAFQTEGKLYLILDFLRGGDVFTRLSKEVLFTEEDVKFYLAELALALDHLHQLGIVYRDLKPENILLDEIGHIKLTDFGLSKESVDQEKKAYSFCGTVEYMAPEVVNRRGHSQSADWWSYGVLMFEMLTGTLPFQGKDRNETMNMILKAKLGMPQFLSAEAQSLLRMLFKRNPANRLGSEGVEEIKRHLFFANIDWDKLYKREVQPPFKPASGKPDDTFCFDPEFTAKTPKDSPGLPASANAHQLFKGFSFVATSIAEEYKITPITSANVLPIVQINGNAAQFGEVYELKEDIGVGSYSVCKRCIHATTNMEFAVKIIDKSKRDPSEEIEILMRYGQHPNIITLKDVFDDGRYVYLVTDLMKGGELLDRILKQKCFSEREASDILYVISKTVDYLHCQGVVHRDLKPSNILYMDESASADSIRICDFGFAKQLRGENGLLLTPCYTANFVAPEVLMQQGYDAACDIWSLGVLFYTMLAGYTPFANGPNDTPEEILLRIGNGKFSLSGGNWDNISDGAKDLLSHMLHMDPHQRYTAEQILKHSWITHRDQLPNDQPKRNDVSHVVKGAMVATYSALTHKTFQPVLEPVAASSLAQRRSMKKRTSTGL

TAK1(h) = molecular target: T3, TAK1(h)
BrSK2(h) = molecular target: T4, BrSK2(h)

Binder | % activity, 100 µM (Flt3(D835Y)(h)) [%] | % activity, 100 µM (IKKβ(h)) [%] | % activity, 100 µM (LOK(h)) [%] | % activity, 100 µM (Rsk4(h)) [%] | % activity, 100 µM (TAK1(h)) [%] | % activity, 100 µM (BrSK2(h)) [%]
B1 | 80 | 84 | 37 | 90 | 122 | 83
B2 | 71 | 84 | 18 | 91 | 177 | 86

From US20140072613A1 (published 2014)
